From article PMC8778164, “Towards Complete Tumor Resection: Novel Dual-Modality Probes for Improved Image-Guided Surgery of GRPR-Expressing Prostate Cancer” (Pharmaceutics, 2022)
Where two headings read alike, the source gives them in different places.

Legend:
[1] = tested on: PC-3-xenograft Balb/c nu/nu mice; assay: Ex vivo optical (fluorescence, IVIS) imaging of organs; assay type: in vivo, mouse; conditions: ex vivo after dissection, ex/em 640/680 nm
Experimental: (§1) Seven-week-old male Balb/c nu/nu-specific and opportunistic pathogen-free (SOPF) mice (Janvier Labs, Le Genest-Saint-Isle, France) were housed in individually ventilated cages, with 4 mice per cage. Upon arrival, mice were acclimated for 1 week, with access to food and water ad libitum. Mice were subcutaneously inoculated on the right shoulder with PC-3 cells (5 × 10^6 cells suspended in 100 µL of 1/3 Matrigel (Corning Inc., Corning, NY, USA) and 2/3 Hank’s balanced salt solution (Gibco). PC-3 xenografts were allowed to grow for 3 weeks. Tumor sizes were 391 ± 173 mm^3 at the start of the studies. All animal experiments were approved by the Animal Welfare Committee of the Erasmus MC and were conducted in agreement with institutional guidelines (license number: AVD101002017867, 28 September 2017).
Before gamma counter measurements, the tumor half, pancreas, kidneys, lungs, small intestine, large intestine, liver, muscle, and bone were placed in two petri dishes and ex vivo optical imaging was performed with the IVIS Spectrum system (Perkin Elmer, Waltham, MA, USA) using the following settings for all measurements: FOV 12.6 cm, medium binning, f2, 0.5 s exposure with an excitation/emission filter of 640 nm/680 nm. Living Image version 4.5.2 software (Perkin Elmer) was used to perform data analysis by drawing a region of interest around the organ/tissue to quantify the radiant efficiency {(photons/second/cm^2/steradian)/(μW/cm^2)}.

[2] = Stability in PBS at 37 °C (iTLC); assay type: physicochemical; conditions: intact labeled ligand after incubation at 37 °C in PBS, n = 1
Experimental: Stability in PBS was determined by incubating 20 µL of the labeled compounds (∼11 MBq) in PBS (80 µL) at 37 °C. Radiochemical purity was determined by iTLC at 30 min, 1 h, 2 h and 4 h. Stability in the serum was carried out by adding 70 µL of the labeled compound (∼35 MBq) to 330 µL of mouse serum (Merck, Haarlerbergweg, The Netherlands). The mixture was incubated at 37 °C. At different time points (30 min, 1 h, 2 h and 4 h), an aliquot of the mixture (50 µL) was added to 50 µL ACN. The vial was vortexed and centrifuged at 10,000 rpm for 20 min and the supernatant was analyzed by iTLC.

[3] = tested on: PC-3-xenograft Balb/c nu/nu mice; assay: Ex vivo biodistribution after SPECT/CT scanning; assay type: in vivo, mouse; conditions: radioactivity, ~3 h p.i.
Experimental: as §1
(§2) To determine the biodistribution of the compounds after imaging (~3 h p.i.), blood was collected via cardiac puncture under isoflurane/O2 anesthesia, after which the mice were sacrificed. The tumor and organs of interest (prostate, pancreas, spleen, liver, GI tract (stomach, small intestine, cecum, large intestine), kidneys, lungs, heart, muscle, bone, and brain) were excised, washed in PBS and blotted dry. The stomach, intestines and cecum were emptied of their contents. The tumor was cut in half; one half was fresh-frozen for further analysis and the other half was collected for ex vivo optical imaging and radioactivity measurements. After imaging, the blood, tumor, and relevant organs were weighed and measured in a γ-counter. To determine the total injected radioactivity per animal, samples of the injected solutions were measured as well. The percentage of injected dose per gram (%ID/g) was determined for each tissue sample and corrected for both the injected volume and %ID present at the injection site (the tail). Because the low weight of the prostate limited accurate organ weight measurements, the average prostate weight of all animals was used.

[4] = Ex vivo biodistribution after SPECT/CT scanning; assay type: in vivo, mouse; conditions: mouse, iv, ~3 h p.i.; for tissue to tissue ratio: male, Balb/c nu/nu, total radioactivity, radioactivity; for tissue uptake at 3 h: PC-3 xenograft mice, i.v.
Experimental: as §1, §2

[5] = blocked with 150 nmol unlabeled NeoB, n = 1
[6] = non-blocked, n = 3, listed as [111In]In‐15

CC(C)CC(CC(C)C)NC(=O)[C@H](Cc1c[nH]cn1)NC(=O)CNC(=O)[C@@H](NC(=O)[C@H](C)NC(=O)[C@H](Cc1c[nH]c2ccccc12)NC(=O)[C@H](CCC(N)=O)NC(=O)[C@@H](Cc1ccccc1)NC(=O)CCOCCOCCOCCOCCNC(=O)[C@H](CCCCNC(=O)OC1CCCC2C=NN=C(c3ccc(CNC(=O)CCCCC[N+]4=C(/C=C/C=C/C=C5N(C)c6ccc(S(=O)(=O)O)cc6C5(C)C)C(C)(C)c5cc(S(=O)(=O)[O-])ccc54)cc3)C2CC1)NC(=O)CN1CCN(CC(=O)O)CCN(CC(=O)O)CCN(CC(=O)O)CC1)C(C)C (stereo partly drawn) [[^111In]In-15, metal not drawn]
Fluorescent signal, bone (average radiant efficiency) [1, 5]: 0.55 × 10^8 p/sec/cm^2/sr per µW/cm
Fluorescent signal, kidneys (average radiant efficiency) [1, 5]: 6.09 × 10^8 p/sec/cm^2/sr per µW/cm
Fluorescent signal, large intestine (average radiant efficiency) [1, 5]: 0.49 × 10^8 p/sec/cm^2/sr per µW/cm
Fluorescent signal, liver (average radiant efficiency) [1, 5]: 1.75 × 10^8 p/sec/cm^2/sr per µW/cm
Fluorescent signal, lungs (average radiant efficiency) [1, 5]: 2.93 × 10^8 p/sec/cm^2/sr per µW/cm
Fluorescent signal, muscle (average radiant efficiency) [1, 5]: 0.96 × 10^8 p/sec/cm^2/sr per µW/cm
Fluorescent signal, pancreas (average radiant efficiency) [1, 5]: 1.17 × 10^8 p/sec/cm^2/sr per µW/cm
Fluorescent signal, small intestine (average radiant efficiency) [1, 5]: 0.38 × 10^8 p/sec/cm^2/sr per µW/cm
Fluorescent signal, tumor (average radiant efficiency) [1, 5]: 1.47 × 10^8 p/sec/cm^2/sr per µW/cm
Fluorescent signal, bone (average radiant efficiency) ([1]; non-blocked, n = 3): 0.74 ± 0.24 × 10^8 p/sec/cm^2/sr per µW/cm
Fluorescent signal, kidneys (average radiant efficiency) ([1]; non-blocked, n = 3): 7.80 ± 0.92 × 10^8 p/sec/cm^2/sr per µW/cm^2
Fluorescent signal, large intestine (average radiant efficiency) ([1]; non-blocked, n = 3): 0.94 ± 0.28 × 10^8 p/sec/cm^2/sr per µW/cm
Fluorescent signal, liver (average radiant efficiency) ([1]; non-blocked, n = 3): 2.38 ± 0.21 × 10^8 p/sec/cm^2/sr per µW/cm
Fluorescent signal, lungs (average radiant efficiency) ([1]; non-blocked, n = 3): 2.25 ± 0.70 × 10^8 p/sec/cm^2/sr per µW/cm
Fluorescent signal, muscle (average radiant efficiency) ([1]; non-blocked, n = 3): 1.08 ± 0.16 × 10^8 p/sec/cm^2/sr per µW/cm
Fluorescent signal, pancreas (average radiant efficiency) ([1]; non-blocked, n = 3): 5.12 ± 1.93 × 10^8 p/sec/cm^2/sr per µW/cm^2
Fluorescent signal, small intestine (average radiant efficiency) ([1]; non-blocked, n = 3): 0.85 ± 0.04 × 10^8 p/sec/cm^2/sr per µW/cm
Fluorescent signal, tumor (average radiant efficiency) ([1]; non-blocked, n = 3): 4.66 ± 1.35 × 10^8 p/sec/cm^2/sr per µW/cm^2
Fluorescent signal, kidneys (average radiant efficiency) [1, 6]: 7.80 ± 0.92 × 10^8 p/sec/cm^2/sr per µW/cm
Fluorescent signal, pancreas (average radiant efficiency) [1, 6]: 5.12 ± 1.93 × 10^8 p/sec/cm^2/sr per µW/cm
Fluorescent signal, tumor (average radiant efficiency) [1, 6]: 4.66 ± 1.35 × 10^8 p/sec/cm^2/sr per µW/cm
Stability in PBS (%) 30 min ([2]; 30 min): 83.0%
Stability in PBS (%) 1 h ([2]; 1 h): 71.8%
Stability in PBS (%) 2 h ([2]; 2 h): 67.0%
Stability in PBS (%) 4 h ([2]; 4 h): 57.1%
Tumor-to-blood ratio [3, 5]: 0.32
Tumor-to-prostate ratio [3, 5]: 3.09
Tumor-to-prostate ratio ([3]; non-blocked, n = 3): 2.16 ± 0.46
tissue to tissue ratio ([4]; tumor and blood, non-blocked, n = 3, read-out: Tumor-to-blood ratio): 0.38 ± 0.04
tissue to tissue ratio ([4]; tumor and kidney, blocked with 150 nmol unlabeled NeoB, n = 1, read-out: Tumor-to-kidney ratio): 0.24
tissue to tissue ratio ([4]; tumor and kidney, non-blocked, n = 3, read-out: Tumor-to-kidney ratio): 0.45 ± 0.04
tissue to tissue ratio ([4]; tumor and liver, blocked with 150 nmol unlabeled NeoB, n = 1, read-out: Tumor-to-liver ratio): 0.49
tissue to tissue ratio ([4]; tumor and liver, non-blocked, n = 3, read-out: Tumor-to-liver ratio): 0.78 ± 0.04
tissue to tissue ratio ([4]; tumor and muscle, blocked with 150 nmol unlabeled NeoB, n = 1, read-out: Tumor-to-muscle ratio): 3.42
tissue to tissue ratio ([4]; tumor and muscle, non-blocked, n = 3, read-out: Tumor-to-muscle ratio): 6.27 ± 0.44
tissue to tissue ratio ([4]; tumor and pancreas, blocked with 150 nmol unlabeled NeoB, n = 1, read-out: Tumor-to-pancreas ratio): 2.95
tissue to tissue ratio ([4]; tumor and pancreas, non-blocked, n = 3, read-out: Tumor-to-pancreas ratio): 0.72 ± 0.08
tissue uptake at 3 h ([4]; blood, blocked with 150 nmol unlabeled NeoB, n = 1, read-out: Blood uptake): 13.9 %ID/g
tissue uptake at 3 h ([4]; blood, non-blocked, n = 3, read-out: Blood uptake): 18.3 ± 2.12 %ID/g
tissue uptake at 3 h ([4]; bone, blocked with 150 nmol unlabeled NeoB, n = 1, read-out: Bone uptake): 2.82 %ID/g
tissue uptake at 3 h ([4]; bone, non-blocked, n = 3, read-out: Bone uptake): 3.05 ± 0.74 %ID/g
tissue uptake at 3 h ([4]; brain, blocked with 150 nmol unlabeled NeoB, n = 1, read-out: Brain uptake): 0.51 %ID/g
tissue uptake at 3 h ([4]; brain, non-blocked, n = 3, read-out: Brain uptake): 0.67 ± 0.28 %ID/g
tissue uptake at 3 h ([4]; cecum, blocked with 150 nmol unlabeled NeoB, n = 1, read-out: Cecum uptake): 2.31 %ID/g
tissue uptake at 3 h ([4]; cecum, non-blocked, n = 3, read-out: Cecum uptake): 5.21 ± 1.94 %ID/g
tissue uptake at 3 h ([4]; heart, blocked with 150 nmol unlabeled NeoB, n = 1, read-out: Heart uptake): 3.27 %ID/g
tissue uptake at 3 h ([4]; heart, non-blocked, n = 3, read-out: Heart uptake): 5.43 ± 0.69 %ID/g
tissue uptake at 3 h ([4]; kidneys, blocked with 150 nmol unlabeled NeoB, n = 1, read-out: Kidneys uptake): 18.2 %ID/g
tissue uptake at 3 h ([4]; kidneys, non-blocked, n = 3, read-out: Kidneys uptake): 15.4 ± 0.5 %ID/g
tissue uptake at 3 h ([4]; large intestine, blocked with 150 nmol unlabeled NeoB, n = 1, read-out: Large intestine uptake): 2.35 %ID/g
tissue uptake at 3 h ([4]; large intestine, non-blocked, n = 3, read-out: Large intestine uptake): 5.6 ± 1.44 %ID/g
tissue uptake at 3 h ([4]; liver, blocked with 150 nmol unlabeled NeoB, n = 1, read-out: Liver uptake): 8.93 %ID/g
tissue uptake at 3 h ([4]; liver, non-blocked, n = 3, read-out: Liver uptake): 8.87 ± 0.65 %ID/g
tissue uptake at 3 h ([4]; lungs, blocked with 150 nmol unlabeled NeoB, n = 1, read-out: Lungs uptake): 18.9 %ID/g
tissue uptake at 3 h ([4]; lungs, non-blocked, n = 3, read-out: Lungs uptake): 6.77 ± 1.73 %ID/g
tissue uptake at 3 h ([4]; muscle, blocked with 150 nmol unlabeled NeoB, n = 1, read-out: Muscle uptake): 1.28 %ID/g
tissue uptake at 3 h ([4]; muscle, non-blocked, n = 3, read-out: Muscle uptake): 1.1 ± 0.09 %ID/g
tissue uptake at 3 h ([4]; pancreas, blocked with 150 nmol unlabeled NeoB, n = 1, read-out: Pancreas uptake): 1.49 %ID/g
tissue uptake at 3 h ([4]; pancreas, non-blocked, n = 3, read-out: Pancreas uptake): 9.72 ± 1.63 %ID/g
tissue uptake at 3 h ([4]; prostate, blocked with 150 nmol unlabeled NeoB, n = 1, read-out: Prostate uptake): 1.42 %ID/g
tissue uptake at 3 h ([4]; prostate, non-blocked, n = 3, read-out: Prostate uptake): 3.27 ± 0.74 %ID/g
tissue uptake at 3 h ([4]; small intestine, blocked with 150 nmol unlabeled NeoB, n = 1, read-out: Small intestine uptake): 1.97 %ID/g
tissue uptake at 3 h ([4]; small intestine, non-blocked, n = 3, read-out: Small intestine uptake): 3.79 ± 0.69 %ID/g
tissue uptake at 3 h ([4]; spleen, blocked with 150 nmol unlabeled NeoB, n = 1, read-out: Spleen uptake): 5.05 %ID/g
tissue uptake at 3 h ([4]; spleen, non-blocked, n = 3, read-out: Spleen uptake): 5.86 ± 1.7 %ID/g
tissue uptake at 3 h ([4]; stomach, blocked with 150 nmol unlabeled NeoB, n = 1, read-out: Stomach uptake): 3.48 %ID/g
tissue uptake at 3 h ([4]; stomach, non-blocked, n = 3, read-out: Stomach uptake): 4.4 ± 1.04 %ID/g
tissue uptake at 3 h ([4]; tumor, blocked with 150 nmol unlabeled NeoB, n = 1, read-out: Tumor uptake): 4.39 %ID/g
tissue uptake at 3 h ([4]; tumor, non-blocked, n = 3, read-out: Tumor uptake): 6.9 ± 0.81 %ID/g
